From patent US20250034224A1

Columns and labels:
Test in all cases: cell-based or functional assay
[1] = target: IL2 receptors (on lymphocyte populations of human PBMCs)
[2] = target: Chimeric antigen receptor containing a VL-VH scFv (VL and VH of antibody 17363N) recognizing T3 (HLA)
[3] = target: OT-I TCR (Ovalbumin(257-264)-specific) on CD8+ T cells of an OT-I TCR transgenic mouse (mouse); details: scale: orders of magnitude higher potency than T5-IL2M6

“IL2M2: Human IL2-(GGGGS)4-human IL-2Ra-GGGGS-Fc (Fc fusion)” gave a potency in STAT5 phosphorylation on multiple lymphocyte populations, against IL2M0 (fold less potent than IL2M0) [1] of 100.

In the case of “IL2M5: Fc-GGGGS-human IL2 (N88D, C125A) fusion (Fc fusion)”, the potency in STAT5 phosphorylation on multiple lymphocyte populations, against IL2M4 (fold less potent than IL2M4) [1] is reported as > 100.

“T3-IL2M6: HPV16E7(11-19)-GCGGS-(GGGGS)2-hB2m-(GGGGS)4-hHLA.A2-(GGGGS)4-Fc-(GGGGS)3-hIL2(H16A, F42A) (peptide-MHC)” was tested, and the frequency of viable CAR-T (eGFPPos) cells at day 3 of expansion (start 38%) [2] was 36%.

“T4-IL2M6: OVA(257-264)-GCGGS-(GGGGS)2-mB2m-(GGGGS)4-mH2Kb-(GGGGS)4-Fc-(GGGGS)3-hIL2(H16A, F42A) (peptide-MHC)” was tested, and the intracellular STAT5 phosphorylation in gated CD8+ T cells of OT-I splenocytes [3] was 2.
